Assay results published in patent publication US20160311918A1, “Anti-Ron Monoclonal Antibodies as a Cytotoxic Drug Delivery System for Targeted Cancer Therapy” (TEXAS TECH UNIVERSITY SYSTEM, priority 2013, published 2016).
Several values for one entry are separate records, joined by “and”; a condition that tells them apart may be missing. Identical values can stand only once.

Key:
SW620 cells = assay: Cell viability assay, SW620; assay type: cell-based, human; conditions: read-out: IC50 cell viability, free DM1
Method: (§1) Cell viability was determined by the MTS assay. […] Morphological changes were observed under the Olympus BK-41 inverted microscope and photographed. […] FIG. 3D: Cell death percentages were determined by the trypan blue exclusion method.
(§2) Cell viability and death assays: Cell viability 72 h after Zt/g4-DM1 treatment was determined by the MTT assay (22). Viable or dead cells were determined by the trypan blue exclusion assay. A total of 900 cells were counted from three individual wells to reach the percentages of dead cells.
(§3) The effect of Zt/g4-DM1 on cell viability was determined. […] The cells were treated with Zt/g4-DM1.

HT29 cells = assay: Cell viability assay, HT29; assay type: cell-based, human; conditions: read-out: IC50 cell viability, free DM1
Method: as §1, §2, §3

HCT116 cells = assay: Cell viability assay, HCT116; assay type: cell-based, human; conditions: read-out: IC50 cell viability, free DM1
Method: as §1, §2, §3

[1] = target: T1, human RON receptor tyrosine kinase (recepteur d'origine nantais) (human, UniProt Q04912 25-1400); assay: cell-based or functional assay
[2] = target: T1, human RON receptor tyrosine kinase …; assay: cell-based or functional assay; remark: listed apart in the source
cell surface RON = cell surface RON (Homo sapiens, UniProt Q04912); assay: Antibody-induced RON endocytosis in cancerous cells; assay type: cell-based; set-up: cause rapid and significant amount of cell surface RON internalization in cancerous cells; endogenous in cells
cell surface RON, sequence (Q04912 25-1400): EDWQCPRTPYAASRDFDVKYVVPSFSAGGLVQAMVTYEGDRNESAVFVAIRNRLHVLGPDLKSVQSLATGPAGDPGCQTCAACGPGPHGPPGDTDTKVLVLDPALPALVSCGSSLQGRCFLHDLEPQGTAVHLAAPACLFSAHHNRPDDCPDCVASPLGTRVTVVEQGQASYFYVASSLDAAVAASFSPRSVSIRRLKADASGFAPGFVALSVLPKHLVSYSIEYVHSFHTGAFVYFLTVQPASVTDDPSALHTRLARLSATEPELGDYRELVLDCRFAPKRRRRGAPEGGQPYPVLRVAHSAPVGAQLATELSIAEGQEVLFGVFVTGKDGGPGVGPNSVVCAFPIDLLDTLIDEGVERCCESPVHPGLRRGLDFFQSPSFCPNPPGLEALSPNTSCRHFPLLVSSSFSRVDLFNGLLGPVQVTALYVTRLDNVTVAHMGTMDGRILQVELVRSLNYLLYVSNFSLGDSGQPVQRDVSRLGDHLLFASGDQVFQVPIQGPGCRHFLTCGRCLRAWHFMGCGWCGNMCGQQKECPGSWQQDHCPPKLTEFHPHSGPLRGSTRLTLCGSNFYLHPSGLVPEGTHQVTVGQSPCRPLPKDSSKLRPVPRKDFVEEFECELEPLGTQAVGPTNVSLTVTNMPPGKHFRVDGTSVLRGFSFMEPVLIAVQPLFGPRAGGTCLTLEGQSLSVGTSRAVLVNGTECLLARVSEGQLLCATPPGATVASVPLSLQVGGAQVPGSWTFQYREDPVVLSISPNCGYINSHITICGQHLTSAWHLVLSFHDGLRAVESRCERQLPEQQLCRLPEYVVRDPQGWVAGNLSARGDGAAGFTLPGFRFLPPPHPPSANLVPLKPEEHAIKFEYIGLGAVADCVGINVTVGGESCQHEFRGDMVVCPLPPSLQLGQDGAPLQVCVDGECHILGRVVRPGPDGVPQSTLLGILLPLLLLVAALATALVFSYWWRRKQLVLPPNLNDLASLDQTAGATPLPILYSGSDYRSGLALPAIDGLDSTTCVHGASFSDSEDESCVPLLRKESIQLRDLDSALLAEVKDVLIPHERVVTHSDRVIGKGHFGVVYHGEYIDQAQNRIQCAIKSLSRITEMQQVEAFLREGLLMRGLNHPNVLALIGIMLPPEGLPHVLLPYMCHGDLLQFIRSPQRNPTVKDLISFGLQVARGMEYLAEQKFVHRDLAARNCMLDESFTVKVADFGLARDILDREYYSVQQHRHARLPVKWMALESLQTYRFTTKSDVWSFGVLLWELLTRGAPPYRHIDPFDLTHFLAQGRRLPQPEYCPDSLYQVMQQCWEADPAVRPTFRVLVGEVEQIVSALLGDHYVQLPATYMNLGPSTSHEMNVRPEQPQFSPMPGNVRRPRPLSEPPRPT
Excerpt: During characterization of anti-RON mAbs, the present inventors discovered that agonistic anti-RON mAb such as Zt/g4 and Zt/c1 binds to RON and cause rapid and significant amount of cell surface RON internalization in cancerous cells (a process known as antibody-induced receptor endocytosis). […] Fab fragments that fail to cause RON activation cannot induce RON endocytosis. In light of these findings, the present inventors conclude that anti-RON mAb-induced RON endocytosis can be used as a pharmaceutical means for targeted drug delivery.

mouse RON homologue = target: T2, mouse RON homologue (Mus musculus, UniProt Q62190); conditions: cited from earlier work
T2 sequence (Q62190 24-1378): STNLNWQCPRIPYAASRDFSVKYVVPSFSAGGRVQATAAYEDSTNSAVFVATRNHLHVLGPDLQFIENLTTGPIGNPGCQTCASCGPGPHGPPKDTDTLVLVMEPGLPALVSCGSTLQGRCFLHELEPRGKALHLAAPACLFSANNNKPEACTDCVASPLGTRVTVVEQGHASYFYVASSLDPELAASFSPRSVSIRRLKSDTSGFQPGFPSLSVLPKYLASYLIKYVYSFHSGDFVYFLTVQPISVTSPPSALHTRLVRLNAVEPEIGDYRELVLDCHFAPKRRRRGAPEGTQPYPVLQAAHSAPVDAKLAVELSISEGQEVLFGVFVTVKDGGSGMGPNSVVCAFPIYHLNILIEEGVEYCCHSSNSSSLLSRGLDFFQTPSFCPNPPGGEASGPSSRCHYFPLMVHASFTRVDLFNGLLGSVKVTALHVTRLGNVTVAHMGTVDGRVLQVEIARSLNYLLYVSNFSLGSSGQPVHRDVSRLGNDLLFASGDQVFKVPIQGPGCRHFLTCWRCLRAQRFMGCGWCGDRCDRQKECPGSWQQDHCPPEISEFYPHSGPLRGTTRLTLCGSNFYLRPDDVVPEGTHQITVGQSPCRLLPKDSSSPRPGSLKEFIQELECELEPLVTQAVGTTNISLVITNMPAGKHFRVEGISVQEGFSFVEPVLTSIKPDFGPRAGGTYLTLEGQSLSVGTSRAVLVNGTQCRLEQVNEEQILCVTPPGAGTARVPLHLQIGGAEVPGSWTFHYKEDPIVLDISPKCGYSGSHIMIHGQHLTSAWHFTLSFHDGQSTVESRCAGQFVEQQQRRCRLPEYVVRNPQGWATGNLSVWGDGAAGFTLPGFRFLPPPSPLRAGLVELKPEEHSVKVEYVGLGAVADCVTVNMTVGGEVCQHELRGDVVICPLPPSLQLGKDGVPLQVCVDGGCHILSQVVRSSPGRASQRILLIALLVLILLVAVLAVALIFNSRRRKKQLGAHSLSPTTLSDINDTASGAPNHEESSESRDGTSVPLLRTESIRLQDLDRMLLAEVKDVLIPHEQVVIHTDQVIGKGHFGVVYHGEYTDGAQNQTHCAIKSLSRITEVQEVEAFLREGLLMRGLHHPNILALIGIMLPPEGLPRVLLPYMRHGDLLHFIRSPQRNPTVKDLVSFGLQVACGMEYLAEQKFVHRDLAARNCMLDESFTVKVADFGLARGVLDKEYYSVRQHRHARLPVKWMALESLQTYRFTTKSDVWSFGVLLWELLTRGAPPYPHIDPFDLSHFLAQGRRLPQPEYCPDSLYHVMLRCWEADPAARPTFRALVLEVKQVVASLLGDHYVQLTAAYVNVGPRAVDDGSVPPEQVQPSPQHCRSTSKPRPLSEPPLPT

RON = RON (Homo sapiens, UniProt Q04912); assay: Classification of anti-RON mAbs by activity upon binding to RON; assay type: cell-based
RON, sequence (Q04912 25-1400): as the sequence (Q04912 25-1400) above
Excerpt: Using an advanced living cell immunization method, the present inventors were able to generate mAbs specific only to the RON extracellular domains. Using flow cytometer in conjunction with biological assays, the present inventors characterize our anti-RON mAbs for their specificity and sensitivity. […] This is based on direct binding, ELISA, IHC, Western blotting and other biochemical and biological assays. Moreover, based on their activities upon binding to RON, the present inventors were able to classify the anti-RON mAb into three categories. […] This type of anti-RON mAbs is considered as agnostic antibodies. The representatives are Zt/g4, Zt/c1, Zt/c9, Zt/f1, and Zt/H12. […] The typical examples are Zt/g9 and Zt/c8. […] One example is Zt/f2. The present inventors considered this type of mAb having therapeutic potentials.

[3] = target: T1, human RON receptor tyrosine kinase …; assay: direct binding, ELISA, IHC, Western blotting, flow cytometry
[4] = tested on: human pancreatic cancer cells; assay: PDAC cell viability in combination with chemotherapeutics; assay type: cell-based
Method: In vitro cell viability and death assays: Cell viability after treatment of Zt/g4-DM1, chemotherapeutics, and their combinations was determined by the MTT assay. Cell death was determined by the trypan blue exclusion assay.
FIGS. 10A to 10D are graphs that show the effect of Zt/g4-DM1 on pancreatic cancer cell cycle, viability, and apoptotic death. […] FIG. 12 are graphs that show synergism between Zt/g4-DM1 and chemotherapeutics by isobolograms.

[5] = target: T3, oncogenic RON variant RON160 (human, UniProt Q04912 25-1400, limits assumed); assay: receptor binding studies; format not stated
T3 construct: also called RONΔ160

[6] = tested on: Colon cancer HT-29 cell-mediated tumor growth; assay: HT-29 cell-mediated tumor growth in athymic nude mice (Zt/f2); assay type: in vivo, mouse
Excerpt: (§4) This sequence is critical in regulating RON maturation and phosphorylation. […] These biochemical features provide the cellular basis for the use of Zt/f2 to inhibit tumor growth in animal model. Repeated administration of Zt/f2 as a single agent into Balb/c mice results in partial inhibition of tumor growth caused by transformed NIH-3T3 cells expressing oncogenic RON160. Colon cancer HT-29 cell-mediated tumor growth in athymic nude mice also was attenuated following Zt/f2 treatment. In both cases, ˜50% inhibition of tumor growth as measured by tumor volume was achieved. […] The present inventors conclude that Zt/f2 is a potential therapeutic mAb capable of inhibiting RON-mediated oncogenesis by colon cancer cells in animal models. The inhibitory effect of Zt/f2 in vivo in combination with chemoagent 5-fluorouracil could represent a novel strategy for future colon cancer therapy.

[7] = tested on: transformed NIH-3T3 cells expressing oncogenic RON160; assay: Tumor growth by NIH-3T3 cells expressing RON160 in Balb/c mice; assay type: in vivo, mouse; conditions: repeated administration, single agent
Excerpt: as §4

[8] = tested on: human RON and its oncogenic variants such as RON160; assay: Zt/f2 receptor binding to human RON
Excerpt: as §4

COc1cc2cc(c1Cl)N(C)C(=O)C[C@H](OC(=O)[C@H](C)N(C)C(=O)CCS)[C@]1(C)O[C@H]1[C@H](C)[C@@H]1C[C@@](O)(NC(=O)O1)[C@H](OC)/C=C/C=C(\C)C2 [DM1, Maytansinoid (DM1)]
IC50 (SW620 cells): 3.2 nM
IC50 (HT29 cells): 4.4 nM
IC50 (HCT116 cells): 4.1 nM

B1: anti-RON antibody Zt/g4-maytansinoid (DM1) conjugate Zt/g4-DM1 (antibody, V domains shown)
VH: EVQLQQSGAELVKPGASVKLSCTTSGFNIIDTYIHWVNQKPDQGLEWIGRIDPADGNRKSDPKFQVKATITVDTSSNTAYLQLSSLTSGDTAVYYCARGYGNLNAMDSWGQGTSVTVSS
VL: DIQMNQSPSSLSASLGDTITITCHASQNINVWLNWYQQKPGNIPKLLIYKASNLHTGVPSRFSGSGSGTGFTLTISSLQPEDIATYYCQQGQSYPLTFGGGTKLEIK
modifications: DM1 conjugated by non-reducible thioether linkage (SMCC) through lysine residues in the antibody molecule; sites not stated; DM1 conjugated by non-reducible thioether linkage (SMCC) through lysine residues in the antibody molecule; average DAR 3.724; sites not stated
IC50 of cell death at 72 h, three CRC cell lines [1]: 5 to 7 µg/mL
IC50 of cell viability at 72 h, HCT116 cells [1]: 2.16 µg/mL
IC50 of cell viability at 72 h, HT29 cells [1]: 1.64 µg/mL
IC50 of cell viability at 72 h, SW620 cells [1]: 4.03 µg/mL
IC50 of cell viability, DLD1 cells [1]: 20.4 µg/mL
average IC50 value in causing cell death, three PDAC cell lines (L3.6pl, BxPC-3, FG) [1]: 3.13 µg/mL
IC50 value, cytotoxic effect on HT-29 cells [2]: 1.25 µg/mL and 8.32 nM

B2: Zt/g4: mouse monoclonal antibody (IgG1α/κ) highly specific to human RON, recognizes the RON sema domain (antibody, V domains shown)
VH: B1 VH
VL: B1 VL
absence of RON expression in cancerous cells in culture (cell surface RON; after endocytosis): up to 72 h
cell surface RON internalization (cell surface RON; within 24 h, 10 μg/ml/1×10^6 cancer cells): almost all cell surface RON is internalized
species recognition of RON (mouse RON homologue): only recognizes human RON but not mouse RON homologue
activity upon binding to RON (RON): cause transient RON phosphorylation

B3: Zt/g4-MMAE (antibody, V domains shown)
VH: B1 VH
VL: B1 VL
modifications: monomethyl auristatin E (MMAE) conjugated; average drug to antibody ratio 3.8:1; sites not stated
average IC50 value in causing cell death, three PDAC cell lines (L3.6pl, BxPC-3, FG) [1]: 5.16 µg/mL

B4: mouse anti-RON monoclonal antibody Zt/g4 (antibody, V domains shown)
VH: B1 VH
VL: B1 VL
notes: Mouse IgG1a/kappa from hybridoma; The leader is not part of the antibody as tested; also called free Zt/g4; anti-RON mAb Zt/g4
binding result [3]: binds

B5: Zt/g4-MMAE: Zt/g4 conjugated to monomethyl auristatin E (MMAE) (conjugate)
VH: B1 VH
VL: B1 VL
combination effect on viability of human pancreatic cancer cells ([4]; in combination with Gemcitabine): synergistic activity
combination effect on viability of human pancreatic cancer cells ([4]; in combination with Oxaliplatin): synergistic activity

B6: mouse monoclonal antibody Zt/f2 specific to human RON (antibody, V domains shown)
VH: QVQLQQSGAELAKPGASVKMSCKASGYTFTSYWMHWVKQRPGQGLEWIGYINPSTGYIEYNQNFKDKATLTADKSSSTAYMQLSSLTSEDSAVYYCARSPSHYYGSRYGYFDVWGAGTTVTVSS
VL: QIVLSQSPAILSASPGEKVTMTCRASSSVSYMHWYQQKPGSSPKPWIYATSNLASGVPARFSGSGSGTSYSLTISRVEAEDAATYYCQQWSSNPRTFGGGTKLEIK
notes: Mouse IgG2a; also called anti-RON mAb Zt/f2
EC50 [5]: 2.3 nM

B7: Zt/f2: mouse IgG2a mAb specific to human RON and its oncogenic variants such as RON160 (antibody, V domains shown)
VH: B6 VH
VL: B6 VL
inhibition effect on HT-29 cell-mediated tumor growth ([6]; in combination with 5-fluorouracil): ~80%
inhibition of tumor growth as measured by tumor volume ([6]; single agent, athymic nude mice): ~50%
inhibition of tumor growth as measured by tumor volume [7]: ~50%
competition with ligand macrophage-stimulating protein for binding to RON [8]: did not compete
activity upon binding to RON (RON): inhibit RON activation and signaling
